Laboratory results published in patent US20180057593A1 (published 2018).
Like-named read-outs stand apart in the source and are kept apart here.

T1: single chain CD3εγ heterodimer (UniProt P07766 23-118; P09693 23-103)
T1 chain: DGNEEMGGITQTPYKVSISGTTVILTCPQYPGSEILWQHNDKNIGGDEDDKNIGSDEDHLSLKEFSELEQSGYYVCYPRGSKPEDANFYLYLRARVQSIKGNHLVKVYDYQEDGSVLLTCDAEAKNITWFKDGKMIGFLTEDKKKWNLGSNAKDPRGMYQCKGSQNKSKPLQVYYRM


Columns and labels:
[1] = target: T1, single chain CD3εγ heterodimer; assay: Biacore
[2] = target: T1, single chain CD3εγ heterodimer; assay: Biacore

Kd [1] [nM]	Kd [2] [nM]	Binder
119	119	Unmasked v4 TDB (bispecific antibody, V domains shown) VH 1: EVQLVQSGAEVKKPGASVKVSCKASGFTFTSYYIHWVRQAPGQGLEWIGWIYPENDNTKYNEKFKDRVTITADTSTSTAYLELSSLRSEDTAVYYCARDGYSRYYFDYWGQGTLVTVSS VL 1: DIVMTQSPDSLAVSLGERATINCKSSQSLLNSRTRKNYLAWYQQKPGQSPKLLIYWTSTRKSGVPDRFSGSGSGTDFTLTISSLQAEDVAVYYCKASFILRTFGQGTKVEIK VH 2: EVQLVESGGGLVQPGGSLRLSCAASGYTFTSYNMHWVRQAPGKGLEWVGAIYPGNGDTSYNQKFKGRFTISVDKSKNTLYLQMNSLRAEDTAVYYCARVVYYSNSYWYFDVWGQGTLVTVSS VL 2: DIQMTQSPSSLSASVGDRVTITCRASSSVSYMHWYQQKPGKAPKPLIYAPSNLASGVPSRFSGSGSGTDFTLTISSLQPEDFATYYCQQWSFNPPTFGQGTKVEIK
3.5	3.5	Unmasked v3 TDB (bispecific antibody, V domains shown) VH 1: EVQLVQSGAEVKKPGASVKVSCKASGFTFTSYYIHWVRQAPGQGLEWIGWIYPENDNTKYNEKFKDRVTITADTSTSTAYLELSSLRSEDTAVYYCARDGYSRYYFDYWGQGTLVTVSS VL 1: DIVMTQSPDSLAVSLGERATINCKSSQSLLNSRTRKNYLAWYQQKPGQSPKLLIYWTSTRKSGVPDRFSGSGSGTDFTLTISSLQAEDVAVYYCKQSFALRTFGQGTKVEIK VH 2: EVQLVESGGGLVQPGGSLRLSCAASGYTFTSYNMHWVRQAPGKGLEWVGAIYPGNGDTSYNQKFKGRFTISVDKSKNTLYLQMNSLRAEDTAVYYCARVVYYSNSYWYFDVWGQGTLVTVSS VL 2: DIQMTQSPSSLSASVGDRVTITCRASSSVSYMHWYQQKPGKAPKPLIYAPSNLASGVPSRFSGSGSGTDFTLTISSLQPEDFATYYCQQWSFNPPTFGQGTKVEIK
1.2	1.2	Unmasked v1 TDB (bispecific antibody, V domains shown) VH 1: EVQLVQSGAEVKKPGASVKVSCKASGFTFTSYYIHWVRQAPGQGLEWIGWIYPENDNTKYNEKFKDRVTITADTSTSTAYLELSSLRSEDTAVYYCARDGYSRYYFDYWGQGTLVTVSS VL 1: DIVMTQSPDSLAVSLGERATINCKSSQSLLNSRTRKNYLAWYQQKPGQSPKLLIYWTSTRKSGVPDRFSGSGSGTDFTLTISSLQAEDVAVYYCKQSFILRTFGQGTKVEIK VH 2: EVQLVESGGGLVQPGGSLRLSCAASGYTFTSYNMHWVRQAPGKGLEWVGAIYPGNGDTSYNQKFKGRFTISVDKSKNTLYLQMNSLRAEDTAVYYCARVVYYSNSYWYFDVWGQGTLVTVSS VL 2: DIQMTQSPSSLSASVGDRVTITCRASSSVSYMHWYQQKPGKAPKPLIYAPSNLASGVPSRFSGSGSGTDFTLTISSLQPEDFATYYCQQWSFNPPTFGQGTKVEIK
18	18	Unmasked v5 TDB (bispecific antibody, V domains shown) VH 1: EVQLVQSGAEVKKPGASVKVSCKASGFTFTSYYIHWVRQAPGQGLEWIGWIYPENDNTKYNEKFKDRVTITADTSTSTAYLELSSLRSEDTAVYYCARDGYSRYYFDYWGQGTLVTVSS VL 1: DIVMTQSPDSLAVSLGERATINCKSSQSLLNSRTRKNYLAWYQQKPGQSPKLLIYWTSTRKSGVPDRFSGSGSGTDFTLTISSLQAEDVAVYYCKQSAILRTFGQGTKVEIK VH 2: EVQLVESGGGLVQPGGSLRLSCAASGYTFTSYNMHWVRQAPGKGLEWVGAIYPGNGDTSYNQKFKGRFTISVDKSKNTLYLQMNSLRAEDTAVYYCARVVYYSNSYWYFDVWGQGTLVTVSS VL 2: DIQMTQSPSSLSASVGDRVTITCRASSSVSYMHWYQQKPGKAPKPLIYAPSNLASGVPSRFSGSGSGTDFTLTISSLQPEDFATYYCQQWSFNPPTFGQGTKVEIK
